Values quoted from earlier work, collected in article PMC5430790.

What was measured:
[1] = biological target: TβR-II (Homo sapiens) (UniProt P37173)
[2] = biological target: TβR-I (Homo sapiens) (UniProt P36897)
Chain of TβR-I (Homo sapiens) (P36897 34-126): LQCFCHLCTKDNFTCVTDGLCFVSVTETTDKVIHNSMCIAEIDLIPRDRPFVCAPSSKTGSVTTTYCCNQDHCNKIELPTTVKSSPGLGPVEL

Chain of TGF-β1 (P01137 279-390): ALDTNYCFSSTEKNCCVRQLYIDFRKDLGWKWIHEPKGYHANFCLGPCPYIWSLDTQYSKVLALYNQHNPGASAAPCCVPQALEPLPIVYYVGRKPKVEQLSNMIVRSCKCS
Chain of TβR-II (Homo sapiens) (P37173 23-166): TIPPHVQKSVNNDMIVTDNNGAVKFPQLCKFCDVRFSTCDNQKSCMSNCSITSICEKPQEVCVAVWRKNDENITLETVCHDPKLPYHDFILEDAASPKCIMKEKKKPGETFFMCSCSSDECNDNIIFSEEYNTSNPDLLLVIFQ

Kd [1]: 190 nM
Kd [2]: 70 µM
Substance: TGF-β1 (from UniProt P01137)
